Assay results reported in patent publication US20190185532A1 (UNIVERSITY OF BIRMINGHAM, published 2019).

Assays:
[1] = molecular target: T1, MMRN2^CC-C1q (coiled-coil and C1q domains of human MMRN2, His tag) (human, UniProt Q9H8L6 133-949); experiment: far western blot, reduced; HEK293T lysates of His-tagged MMRN2 constructs probed with CLEC14A-ECD-Fc
T1 construct: domain: coiled-coil and C1q; HEK293T lysate, blotted under reducing conditions; not shown: C-terminal BirA and His tags of vector pHL-Avitag3
T1 sequence (looked up): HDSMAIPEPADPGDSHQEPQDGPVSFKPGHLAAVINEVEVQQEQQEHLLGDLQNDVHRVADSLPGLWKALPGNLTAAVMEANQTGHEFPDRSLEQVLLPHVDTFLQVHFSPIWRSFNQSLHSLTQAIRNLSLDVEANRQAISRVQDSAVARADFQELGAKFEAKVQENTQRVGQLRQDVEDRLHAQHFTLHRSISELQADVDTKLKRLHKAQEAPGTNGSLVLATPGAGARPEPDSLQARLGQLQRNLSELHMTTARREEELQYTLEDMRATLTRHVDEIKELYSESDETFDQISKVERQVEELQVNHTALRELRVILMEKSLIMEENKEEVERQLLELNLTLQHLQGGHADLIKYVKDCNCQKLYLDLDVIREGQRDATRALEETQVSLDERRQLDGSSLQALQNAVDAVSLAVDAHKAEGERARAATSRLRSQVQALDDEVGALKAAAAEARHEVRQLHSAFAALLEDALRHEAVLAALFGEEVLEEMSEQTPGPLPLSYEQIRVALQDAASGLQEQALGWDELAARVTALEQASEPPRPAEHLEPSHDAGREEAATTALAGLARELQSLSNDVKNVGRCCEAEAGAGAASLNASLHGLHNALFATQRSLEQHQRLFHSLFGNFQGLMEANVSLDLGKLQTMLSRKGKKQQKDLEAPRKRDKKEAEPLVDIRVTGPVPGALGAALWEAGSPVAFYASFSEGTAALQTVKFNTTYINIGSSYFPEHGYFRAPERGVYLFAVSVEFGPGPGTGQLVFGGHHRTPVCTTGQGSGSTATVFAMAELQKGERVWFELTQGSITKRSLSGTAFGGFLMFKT
Source text: (§1) FIG. 2. […] (A) Diagrams of MMRN2 truncation mutants, showing the elastin microfibril interface (EMI) domain, coiled-coil (CC) domain and complement related C1q domain. The minimal CLEC14A binding fragment is highlighted in black. (B,C) HEK293T were transfected with truncation mutants. Lysates were far western blotted under reduced conditions with CLEC14A extracellular domain fused to an Fc tag (CLEC14A-ECD-Fc) and western blotted by use of His tag antibodies. (B) The smallest binding fragment was identified as MMRN2⁴⁸⁷⁻⁸²⁰, MMRN2^FL fails to bind CLEC14A-ECD-Fc. (C) The smallest MMRN2 fragment binding CLEC14A is MMRN2⁵³⁰⁻⁶²⁴. (D) MMRN2⁴⁹⁵⁻⁶⁷⁴ and MMRN2⁴⁹⁵⁻⁶⁰³ bind to streptavidin under reducing conditions after biotinylation. (E) Flow cytometry histograms of HEK293T transfected with GFP tagged CTLD group 14 family members and stained with biotinylated MMRN2⁴⁹⁵⁻⁶⁷⁴ (grey line), confirming binding to CLEC14A and CD93 but not thrombomodulin. Streptavidin-PE was used as a control for background binding (grey shaded).
(§2) Whole cell protein lysates were made by incubating with lysis buffer (1% (v/v) NP40, 10 mM Tris pH7.5, 150 mM NaCl and 1 mM EDTA) and pelleting insoluble material. […] The epitope tag of each probed protein was detected with secondary antibody incubation (anti-His or anti-Fc HRP conjugate) and then tertiary anti-mouse HRP for the case of anti-His.

[2] = molecular target: T2, MMRN2^EMI-CC (EMI and coiled-coil domains of human MMRN2, His tag) (human, UniProt Q9H8L6 23-820); experiment: as above
T2 construct: domain: EMI and coiled-coil; HEK293T lysate, blotted under reducing conditions; not shown: C-terminal BirA and His tags of vector pHL-Avitag3
T2 sequence (looked up): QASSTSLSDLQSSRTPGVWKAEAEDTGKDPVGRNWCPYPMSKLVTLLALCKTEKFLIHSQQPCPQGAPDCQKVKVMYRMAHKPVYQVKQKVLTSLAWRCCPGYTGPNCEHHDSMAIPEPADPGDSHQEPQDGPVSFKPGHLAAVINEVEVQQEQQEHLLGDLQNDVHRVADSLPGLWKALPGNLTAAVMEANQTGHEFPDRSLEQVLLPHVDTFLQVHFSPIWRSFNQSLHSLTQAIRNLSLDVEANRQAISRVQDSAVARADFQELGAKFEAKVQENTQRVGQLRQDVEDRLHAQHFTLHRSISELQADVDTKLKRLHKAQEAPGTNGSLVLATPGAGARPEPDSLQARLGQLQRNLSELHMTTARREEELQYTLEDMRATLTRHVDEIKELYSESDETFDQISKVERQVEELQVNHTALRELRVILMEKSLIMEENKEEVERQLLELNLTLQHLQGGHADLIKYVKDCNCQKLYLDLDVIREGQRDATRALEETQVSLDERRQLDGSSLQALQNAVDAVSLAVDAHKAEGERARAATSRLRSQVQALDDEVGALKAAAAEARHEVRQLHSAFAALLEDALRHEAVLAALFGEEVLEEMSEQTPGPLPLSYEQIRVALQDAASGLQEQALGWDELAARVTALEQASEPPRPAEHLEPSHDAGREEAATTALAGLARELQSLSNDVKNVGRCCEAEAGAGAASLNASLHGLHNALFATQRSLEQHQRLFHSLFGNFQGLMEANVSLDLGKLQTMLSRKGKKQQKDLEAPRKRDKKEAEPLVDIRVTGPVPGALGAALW
Source text: as §1, §2

- binding result [1]: binds
- binding result [2]: binds
B1: CLEC14A-ECD-Fc (human CLEC14A extracellular domain fused to an Fc tag) (Fc fusion)
chain: EHPTADRAGCSASGACYSLHHATMKRQAAEEACILRGGALSTVRAGAELRAVLALLRAGPGPGGGSKDLLFWVALERRRSHCTLENEPLRGFSWLSSDPGGLESDTLQWVEEPQRSCTARRCAVLQATGGVEPAGWKEMRCHLRANGYLCKYQFEVLCPAPRPGAASNLSYRAPFQLHSAALDFSPPGTEVSALCRGQLPISVTCIADEIGARWDKLSGDVLCPCPGRYLRAGKCAELPNCLDDLGGFACECATGFELGKDGRSCVTSGEGQPTLGGTGVPTRRPPATATSPVPQRTWPIRVDEKLGETPLVPEQDNSVTSIPEIPRWGSQSTMSTLQMSLQAESKATITPSGSVISKFNSTTSSATPQAFDSSS
notes: Expressed in HEK293T cells; also called hCLEC14A-ECD-Fc; C14A-Fc; not shown: human IgG Fc tag
